Experimental data from patent US7425614B2, “Neuroprotective therapeutics preventing ERK/MAPK activation through the NMDA receptor” (Children's Medical Center Corporation, priority 2003, dated 2008).

Tested on: CA1 pyramidal neurons
Assay: Assay II: propidium iodide (PI) resistance in organotypic hippocampal slice cultures
Type: cell-based, rat
Settings: NMDA (50 μM) 20 minutes or ischemia; compared to non-transfected or GFP transfected control cells
Procedure: (A) Survival of hippocampal neurons in culture exposed to Glutamate (100 μM) and Glycine (10 μM) for a 20 minute period. 14 div neuronal cultures were transfected with GFP, NR2B-BD or RasGRF1-BD 24 hours prior to analysis. The neuronal cultures were then incubated with glutamate for 20 minutes, washed with culture media and returned to the incubator for an additional 24 hours. The cells were then fixed with PFA and stained with a neuronal specific antibody, Map2. […] (B) Percentage of propidium iodide-resistant (surviving) neurons in organotypic hippocampal slices (P5+7div) expressing GFP, NR2B-BD or […] in control conditions and after 20 minutes exposure to NMDA (50 μM). The fluorescence of propidium iodide (PI) was measured 24 hours later. PI enters damaged cells and is a convenient tool to determine neuronal cell death. For PI staining, the slices were incubated in culture medium containing 0.1 mg/ml PI for 2 h. […]
Assay II: propidium iodide (PI) resistance. […] Cell death was measured as cellular uptake of PI (3,8-diamino-5-[3-([…])propyl]-6-phenyl phenanthridinium diiodide at 24 and 48 h after exposure to NMDA or ischemia. As shown in FIG. 7(B), the expression of both NR2B-BD and RasGRF1-BD increased the percentage of neuronal survival (e.g., the percentage of PI negative neurons) as compared to non-transfected or GFP transfected control cells.

B1: NR2B-BD: peptide of amino acids 886-1310 of the NR2B C-terminal domain that binds RasGRF1; used as NusA or EGFP fusion (protein)
chain: SPTATMNNTHSNILRLLRTAKNMANLSGVNGSPQSALDFIRRESSVYDISEHRRSFTHSDCKSYNNPPCEENLFSDYISEVERTFGNLQLKDSNVYQDHYHHHHRPHSIGSTSSIDGLYDCDNPPFTTQPRSISKKPLDIGLPSSKHSQLSDLYGKFSFKSDRYSGHDDLIRSDVSDISTHTVTYGNIEGNAAKRRKQQYKDSLKKRPASAKSRREFDEIELAYRRRPPRSPDHKRYFRDKEGLRDFYLDQFRTKENSPHWEHVDLTDIYKERSDDFKRDSVSGGGPCTNRSHLKHGTGEKHGVVGGVPAPWEKNLTNVDWEDRSGGNFCRSCPSKLHNYSSTVAGQNSGRQACIRCEACKKAGNLYDISKDNSLQELDQPAAPVAVTSNASSTKYPQSPTNSKAQKKNRNKLRRQHSYDTFVDL
modifications: left off: small tags and cut ends
notes: used as NusA or EGFP fusion
percentage of neuronal survival (PI negative neurons): increased
